Laboratory results: patent publication US10888549B2, “Pharmaceutical agents targeting cancer stem cells” (THE JOHNS HOPKINS UNIVERSITY, priority 2016, dated 2021)

What was measured:
[1] = tested on: SOX2; experiment: SOX2 expression by western blotting / flow cytometry; type: cell-based, human; conditions: basal-type cells
Procedure: Whole cell lysates were extracted using RIPA buffer (Thermo Scientific) supplemented with 10 μL/mL Halt™ Protease Inhibitor Cocktail Kit (Life Technologies) and 30 μL/mL Halt™ Phosphatase Inhibitor Cocktail Kit (Life Technologies). The protein concentrations were determined using a Pierce™ BCA Protein Assay Kit (Life Technologies), and the protein were separated on NuPAGE® 4-12% Bis-Tris Gel (Life Technologies) according to the manufacturer's protocol. […]
For extracellular staining, cells (1×10^6/100 μL stain buffer) were incubated with PE-Vio770-conjugated anti-human CD133 (293C3; Miltenyi Biotec, Auburn, USA) or PE-conjugated anti-human CD24 antibody (cat #, 560991; BD Biosciences) for 30 min at 4° C. in dark. […] Data were acquired on a BD FACSCalibur flow cytometer (BD Biosciences) using BD CellQuest Pro software (BD Biosciences) and analyzed with FlowJo software v10.1 (Tree Star, Ashland, USA).

[2] = tested on: YAP1; experiment: YAP1 expression by western blotting; type: cell-based, human; conditions: basal-type cells
Procedure: Whole cell lysates were extracted using RIPA buffer (Thermo Scientific) supplemented with 10 μL/mL Halt™ Protease Inhibitor Cocktail Kit (Life Technologies) and 30 μL/mL Halt™ Phosphatase Inhibitor Cocktail Kit (Life Technologies). The protein concentrations were determined using a Pierce™ BCA Protein Assay Kit (Life Technologies), and the protein were separated on NuPAGE® 4-12% Bis-Tris Gel (Life Technologies) according to the manufacturer's protocol. COX2 (D5H5), NANOG (D73G4), OCT4 (D7O5Z), CD133 (A3G6K), Snail (C15D3), ZEB1 (D80D3), Vimentin (D21H3), CDH2 (D4R1H), CDH1 (24E10), p-EGFR (D7A5), EGFR (D38B1), p-AKT (D9E), AKT (cat #, 9272), p-ERK (D13.14.4E), ERK (137F5), p-YAP1 (D9W2I), p-Src (cat #, 2101), Src (36D10), DNMT1 (D63A6), DNMT3A (D23G1), and DNMT3B (D7O7O) antibodies were obtained from Cell Signaling Technology (Danvers, Mass., USA), except for SOX2 (EPR3131; Abcam, Cambridge, USA), YAP1 (ab52771; Abcam), CD24 (cat #, AF5247-SP; R&D Systems, Minneapolis USA) and β-actin (A2228; Sigma-Aldrich). Secondary horseradish peroxidase (HRP)-conjugated antibodies were obtained from Cell Signaling Technology, and chemiluminescent detection of HRP-labeled antibodies was performed using Amersham ECL Prime Western Blotting Detection Reagent (GE Healthcare, Piscataway, USA). As loading control, β-actin was used.

B1: EGF: Recombinant human epidermal growth factor (EGF) (protein, UniProt P01133 23-1207, looked up)
Pro-epidermal growth factor: PQHWSCPEGTLAGNGNSTCVGPAPFLIFSHGNSIFRIDTEGTNYEQLVVDAGVSVIMDFHYNEKRIYWVDLERQLLQRVFLNGSRQERVCNIEKNVSGMAINWINEEVIWSNQQEGIITVTDMKGNNSHILLSALKYPANVAVDPVERFIFWSSEVAGSLYRADLDGVGVKALLETSEKITAVSLDVLDKRLFWIQYNREGSNSLICSCDYDGGSVHISKHPTQHNLFAMSLFGDRIFYSTWKMKTIWIANKHTGKDMVRINLHSSFVPLGELKVVHPLAQPKAEDDTWEPEQKLCKLRKGNCSSTVCGQDLQSHLCMCAEGYALSRDRKYCEDVNECAFWNHGCTLGCKNTPGSYYCTCPVGFVLLPDGKRCHQLVSCPRNVSECSHDCVLTSEGPLCFCPEGSVLERDGKTCSGCSSPDNGGCSQLCVPLSPVSWECDCFPGYDLQLDEKSCAASGPQPFLLFANSQDIRHMHFDGTDYGTLLSQQMGMVYALDHDPVENKIYFAHTALKWIERANMDGSQRERLIEEGVDVPEGLAVDWIGRRFYWTDRGKSLIGRSDLNGKRSKIITKENISQPRGIAVHPMAKRLFWTDTGINPRIESSSLQGLGRLVIASSDLIWPSGITIDFLTDKLYWCDAKQSVIEMANLDGSKRRRLTQNDVGHPFAVAVFEDYVWFSDWAMPSVMRVNKRTGKDRVRLQGSMLKPSSLVVVHPLAKPGADPCLYQNGGCEHICKKRLGTAWCSCREGFMKASDGKTCLALDGHQLLAGGEVDLKNQVTPLDILSKTRVSEDNITESQHMLVAEIMVSDQDDCAPVGCSMYARCISEGEDATCQCLKGFAGDGKLCSDIDECEMGVPVCPPASSKCINTEGGYVCRCSEGYQGDGIHCLDIDECQLGEHSCGENASCTNTEGGYTCMCAGRLSEPGLICPDSTPPPHLREDDHHYSVRNSDSECPLSHDGYCLHDGVCMYIEALDKYACNCVVGYIGERCQYRDLKWWELRHAGHGQQQKVIVVAVCVVVLVMLLLLSLWGAHYYRTQKLLSKNPKNPYEESSRDVRSRRPADTEDGMSSCPQPWFVVIKEHQDLKNGGQPVAGEDGQAADGSMQPTSWRQEPQLCGMGTEQGCWIPVSSDKGSCPQVMERSFHMPSYGTQTLEGGVEKPHSLLSANPLWQQRALDPPHQMELTQ
modifications: Pro-epidermal growth factor
- SOX2 expression [1]: increased
- YAP1 expression [2]: increased
